# Measured values taken from paper PMC4960622, “Crystal structures of RidA, an important enzyme for the prevention of toxic side products” (Scientific Reports, 2016).
# B1: Arabidopsis thaliana RidA, construct starting from S68 (AtRidA-S68), wild type [Arabidopsis thaliana] / itself (parent)
# chain: STEKAPAALGPYSQAIKANNLVFLSGVLGLIPETGKFVSESVEDQTEQVLKNMGEILKASGADYSSVVKTTIMLADLADFKTVNEIYAKYFPAPSPARSTYQVAALPLNAKIEIECIATL
# Variants of: B1
# Test: size-exclusion chromatography (Superdex-75)
# Conditions: with itself; 0.5 mg protein loaded; read off a plot
row,Variant,screen value
1,chain 1 K69R,11.4 mL
2,chain 1 E115A,11.6 mL

# Results, then the variant that gave them:
row,screen value,Variant
1,11.4 mL,chain 1 S13A
2,12 mL,chain 1 K69A
3,11.6 mL,chain 1 S99A
